The text below walks through data of US8138323 (YEDA RESEARCH AND DEVELOPMENT, dated 2012).

In this assay the target is TNF (UniProt P01375 77-233). Kind of assay: cell-based or functional assay.
Sequence of TNF (P01375 77-233 limits assumed): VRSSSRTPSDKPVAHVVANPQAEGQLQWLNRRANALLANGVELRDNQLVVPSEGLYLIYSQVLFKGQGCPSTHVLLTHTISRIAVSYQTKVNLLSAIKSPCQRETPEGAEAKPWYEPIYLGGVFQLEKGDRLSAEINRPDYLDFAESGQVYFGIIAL

B1: Tumor Necrosis Factor (TNF) Binding Protein II (receptor, human, UniProt P20333 25-213, looked up)
chain: AQVAFTPYAPEPGSTCRLREYYDQTAQMCCSKCSPGQHAKVFCTKTSDTVCDSCEDSTYTQLWNWVPECLSCGSRCSSDQVETQACTREQNRICTCRPGWYCALSKQEGCRLCAPLRKCRPGFGVARPGTETSDVVCKPCAPGTFSNTTSSTDICRPHQICNVVAIPGNASMDAVCTSTSPTRSMAPGA
Consider B1, for which the “detectable cytotoxicity of rTNF in the presence of TBP-II against rTNF alone, days 2 to 9” value amounted to 10 fold.
